# Assay results as given in US20080199851A1.
# B1: 8H5 single chain antibody (scFv, V domains shown)
# VH: QVQLQQSGAELMKPGASVKISCKATGYTFSNYWIEWIKQRPGHGLEWIGEILPGSDRTNYNGKFKGKATFTADTSSNTAHMQLSSLTSEDSAVYYCANRYDGYYFGLDYWGQGTSVAVSS
# VL: EIVLTQSPAIMSASLGEKVTMSCRASSSVNFVYWYQQRSDASPKLLIYYSSNLAPGVPPRFSGSGSGNSYSLTISGLEGEDAATYYCQHFTSSPYTFGGGTNLEIKR
# B2: 10F7 single chain antibody (scFv)
# scFv: QVQLQQPGAELVKPGASVKLSCKASGYTFTSYWMHWVKQRPGQGLEWIGEIDPSDSYTNYNQKFKGKATLTVDKSSSTAYMQLSSLTSEDSAVYYCARGGTGDFHYAMDYWGQGTSVTVSSGGGGSDILMTQSPSSMSVSLGDTVSITCHASQGISSNIGWLQQKPGKSFKGLIYHGTNLEDGVPSRFSGSGSGADYSLTISSLESEDFADYYCVQYVQFPYTFGGGTKLEIKR
# B3: 4D1 single chain antibody (scFv)
# scFv: QVQLQQPGAELVKPGASVNLSCKASGYTFTSYWMHWVKQRPGQGLEWIGEIDPSDSFTTYNQNFKDRATLTVDKSSSTAYMQLRSLTSEDSAVYYCARGGPGDFRYAMDYWGQGTSVTVSSGGGGSDILMTQSPSSMSVSLGDTVSITCHASQGISSNIGWLQQKPGKSFKGLIYHGTNLEDGVPSRFSGSGSGADYSLTISSLESEDFADYYCVQYVQFPYTFGGGTKLEIKRA
# What was measured:
# [1] = target: A/Taiwan/1/86 (H1N1) (Influenza A virus A/Taiwan/1/86 (H1N1)); assay: lateral-flow sandwich, B line: M2110171 striped + 2/3-Eu
# [2] = target: A/Beijing/95(H1N1) (Influenza A virus A/Beijing/95 (H1N1)); assay: as above
# [3] = target: B/Shanghai/2002 (Influenza B virus B/Shanghai/2002); assay: as above
# [4] = target: DK/VNM/568/2005 (H5N1) (Influenza A virus DK/VNM/568/2005 (H5N1)); assay: as above
# [5] = target: Bar-headed GS/QH/15/2005 (H5N1) (Influenza A virus Bar-headed GS/QH/15/2005 (H5N1)); assay: as above
# [6] = target: A/Taiwan/1/86 (H1N1) (Influenza A virus A/Taiwan/1/86 (H1N1)); assay: lateral-flow sandwich, A line: 7304 striped + M4090913-Eu
# [7] = target: A/Beijing/95(H1N1) (Influenza A virus A/Beijing/95 (H1N1)); assay: as above
# [8] = target: B/Shanghai/2002 (Influenza B virus B/Shanghai/2002); assay: as above
# [9] = target: DK/VNM/568/2005 (H5N1) (Influenza A virus DK/VNM/568/2005 (H5N1)); assay: as above
# [10] = target: Bar-headed GS/QH/15/2005 (H5N1) (Influenza A virus Bar-headed GS/QH/15/2005 (H5N1)); assay: as above
# H5N1 virus strain H2 = assay: cell-based or functional assay
# H5N1 virus strain H1 = assay: cell-based or functional assay
# H5N1 virus strain G1 = assay: cell-based or functional assay
# H5N1 virus strain F2 = assay: cell-based or functional assay
# H5N1 virus strain A3 = assay: cell-based or functional assay
# H5N1 virus strain B4 = assay: cell-based or functional assay
# H5N1 virus strain A1 = assay: cell-based or functional assay
# H5N1 virus strain B1 = assay: cell-based or functional assay
# H5N1 virus strain A6 = assay: cell-based or functional assay
# H5N1 virus strain A2 = assay: cell-based or functional assay
# H5N1 virus strain A5 = assay: cell-based or functional assay
# H5N1 virus strain B3 = assay: cell-based or functional assay
# H5N1 virus strain A7 = assay: cell-based or functional assay
# H5N1 virus strain B6 = assay: cell-based or functional assay
# H5N1 virus strain E2 = assay: cell-based or functional assay
# H5N1 virus strain C2 = assay: cell-based or functional assay
# H5N1 virus strain B8 = assay: cell-based or functional assay
# H5N1 virus strain D2 = assay: cell-based or functional assay
# H5N1 virus strain B7 = assay: cell-based or functional assay
# H5N1 virus strain B2 = assay: cell-based or functional assay
# H5N1 virus strain E1 = assay: cell-based or functional assay
# H5N1 virus strain B5 = assay: cell-based or functional assay
# H5N1 virus strain C3 = assay: cell-based or functional assay
# H5N1 virus strain A8 = assay: cell-based or functional assay
# H5N1 virus strain F3 = assay: cell-based or functional assay
# H5N1 virus strain D1 = assay: cell-based or functional assay
# [11] = target: H5N1 virus CK/HK/213/03 (Influenza A virus CK/HK/213/03); assay: cell-based or functional assay
# [12] = target: H5N1 virus DK/IDN/MS/04 (Influenza A virus DK/IDN/MS/04); assay: cell-based or functional assay
# [13] = target: H5N1 virus Oriental Magpie Robin/HK/366/2006 (Influenza A virus Oriental Magpie Robin/HK/366/2006); assay: cell-based or functional assay
# [14] = target: H5N1 virus CK/IDN/2A/04 (Influenza A virus CK/IDN/2A/04); assay: cell-based or functional assay
# [15] = target: Bar-headed GS/QH/15/2005 (H5N1) (Influenza A virus Bar-headed GS/QH/15/2005 (H5N1)); assay: cell-based or functional assay
# [16] = target: H5N1 virus CP Heron/HK/18/05 (Influenza A virus CP Heron/HK/18/05); assay: cell-based or functional assay
Molecule,HI titer n (titer = 2^n) (n-th power of 2) (H5N1 virus strain H2),HI titer n (titer = 2^n) (n-th power of 2) (H5N1 virus strain H1),HI titer n (titer = 2^n) (n-th power of 2) (H5N1 virus strain G1),HI titer n (titer = 2^n) (n-th power of 2) (H5N1 virus strain F2),HI titer n (titer = 2^n) (n-th power of 2) (H5N1 virus strain A3),HI titer n (titer = 2^n) (n-th power of 2) (H5N1 virus strain B4),HI titer n (titer = 2^n) (n-th power of 2) (H5N1 virus strain A1),HI titer n (titer = 2^n) (n-th power of 2) (H5N1 virus strain B1),HI titer n (titer = 2^n) (n-th power of 2) (H5N1 virus strain A6),HI titer n (titer = 2^n) (n-th power of 2) (H5N1 virus strain A2),HI titer n (titer = 2^n) (n-th power of 2) (H5N1 virus strain A5),HI titer n (titer = 2^n) (n-th power of 2) (H5N1 virus strain B3),HI titer n (titer = 2^n) (n-th power of 2) (H5N1 virus strain A7),HI titer n (titer = 2^n) (n-th power of 2) (H5N1 virus strain B6),HI titer n (titer = 2^n) (n-th power of 2) (H5N1 virus strain E2),HI titer n (titer = 2^n) (n-th power of 2) (H5N1 virus strain C2),HI titer n (titer = 2^n) (n-th power of 2) (H5N1 virus strain B8),HI titer n (titer = 2^n) (n-th power of 2) (H5N1 virus strain D2),HI titer n (titer = 2^n) (n-th power of 2) (H5N1 virus strain B7),HI titer n (titer = 2^n) (n-th power of 2) (H5N1 virus strain B2),further results
Anti-Flu B nucleoprotein M2110171 (Fitzgerald) (antibody),,,,,,,,,,,,,,,,,,,,,Signal/noise of test line [1]: 0.4; Signal/noise of test line [2]: 0.5; Signal/noise of test line [3]: 376; Signal/noise of test line [4]: 1; Signal/noise of test line [5]: 0.6
anti-Flu A Medix 7304 antibody,,,,,,,,,,,,,,,,,,,,,Signal/noise of test line [6]: 493; Signal/noise of test line [7]: 896; Signal/noise of test line [8]: 3.9; Signal/noise of test line [9]: 607; Signal/noise of test line [10]: 246
B1,0,0,0,0,3.5,5,3.5,4,3,4.5,4,5,3,3.5,0,1,3,2,4,0,HI titer n (titer = 2^n) (n-th power of 2) (H5N1 virus strain E1): 0; HI titer n (titer = 2^n) (n-th power of 2) (H5N1 virus strain B5): 0; HI titer n (titer = 2^n) (n-th power of 2) (H5N1 virus strain C3): 0; HI titer n (titer = 2^n) (n-th power of 2) (H5N1 virus strain A8): 2.5; HI titer n (titer = 2^n) (n-th power of 2) (H5N1 virus strain F3): 0; HI titer n (titer = 2^n) (n-th power of 2) (H5N1 virus strain D1): 2.5
B2,0,< 1,0,0,> 8,> 8,> 8,7,7.5,> 8,> 8,> 8,6.5,7,0,2,7,2.5,7,0,neutralization: dilution of 10F7 scFv (fold dilution) [11]: < 1; neutralization: dilution of 10F7 scFv (fold dilution) [12]: 16; neutralization: dilution of 10F7 scFv (fold dilution) [13]: < 1; neutralization: dilution of 10F7 scFv (fold dilution) [14]: 32; HI titer n (titer = 2^n) (n-th power of 2) (H5N1 virus strain E1): 0; HI titer n (titer = 2^n) (n-th power of 2) (H5N1 virus strain B5): 0; HI titer n (titer = 2^n) (n-th power of 2) (H5N1 virus strain C3): 1; HI titer n (titer = 2^n) (n-th power of 2) (H5N1 virus strain A8): 6; HI titer n (titer = 2^n) (n-th power of 2) (H5N1 virus strain F3): 0; HI titer n (titer = 2^n) (n-th power of 2) (H5N1 virus strain D1): 2.5; neutralization: dilution of 10F7 scFv (fold dilution) [15]: 16; neutralization: dilution of 10F7 scFv (fold dilution) [16]: 8
B3,4,6,3.5,5,> 8,> 8,> 8,> 8,7,> 8,> 8,> 8,6,> 8,1,> 8,> 8,7.5,> 8,0,HI titer n (titer = 2^n) (n-th power of 2) (H5N1 virus strain E1): 1; HI titer n (titer = 2^n) (n-th power of 2) (H5N1 virus strain B5): 0; HI titer n (titer = 2^n) (n-th power of 2) (H5N1 virus strain C3): > 8; HI titer n (titer = 2^n) (n-th power of 2) (H5N1 virus strain A8): > 8; HI titer n (titer = 2^n) (n-th power of 2) (H5N1 virus strain F3): 3; HI titer n (titer = 2^n) (n-th power of 2) (H5N1 virus strain D1): > 8
